Source: US20250320304A1 (Janssen / Centocor, published 2025)

B1: BCMB1055 (bispecific antibody, human IgG1, kappa, L234A L235A)
light: DIQMTQSPSSVSASVGDRVTITCKASQNVGTAVAWYQQKPGQSPKLLIYSASNRYTGVPSRFSGSGSGTDFTLTISSLQPEDFATYFCQQYGSSPWTFGGGTKVEIKRTVAAPSVFIFPPSDEQLKSGTASVVCLLNNFYPREAKVQWKVDNALQSGNSQESVTEQDSKDSTYSLSSTLTLSKADYEKHKVYACEVTHQGLSSPVTKSFNRGEC
heavy: QVQLVQSGAEVKKPGASVKVSCKASGYTFTNNVMHWVRQAPGQGLEWMGYILPYNDGTKYNQKFQGRVTLTSDKSASTAYMELSSLRSEDTAVYYCARYDYDGYFDYWGQGTTVTVSSASTKGPSVFPLAPSSKSTSGGTAALGCLVKDYFPEPVTVSWNSGALTSGVHTFPAVLQSSGLYSLSSVVTVPSSSLGTQTYICNVNHKPSNTKVDKKVEPKSCDKTHTCPPCPAPEAAGGPSVFLFPPKPKDTLMISRTPEVTCVVVSVSHEDPEVKFNWYVDGVEVHNAKTKPREEQYNSTYRVVSVLTVLHQDWLNGKEYKCKVSNKALPAPIEKTISKAKGQPREPQVYTLPPSREEMTKNQVSLSCAVKGFYPSDIAVEWESNGQPENNYKTTPPVLDSDGSFFLVSKLTVDKSRWQQGNVFSCSVMHEALHNRFTQKSLSLSPGK
chain: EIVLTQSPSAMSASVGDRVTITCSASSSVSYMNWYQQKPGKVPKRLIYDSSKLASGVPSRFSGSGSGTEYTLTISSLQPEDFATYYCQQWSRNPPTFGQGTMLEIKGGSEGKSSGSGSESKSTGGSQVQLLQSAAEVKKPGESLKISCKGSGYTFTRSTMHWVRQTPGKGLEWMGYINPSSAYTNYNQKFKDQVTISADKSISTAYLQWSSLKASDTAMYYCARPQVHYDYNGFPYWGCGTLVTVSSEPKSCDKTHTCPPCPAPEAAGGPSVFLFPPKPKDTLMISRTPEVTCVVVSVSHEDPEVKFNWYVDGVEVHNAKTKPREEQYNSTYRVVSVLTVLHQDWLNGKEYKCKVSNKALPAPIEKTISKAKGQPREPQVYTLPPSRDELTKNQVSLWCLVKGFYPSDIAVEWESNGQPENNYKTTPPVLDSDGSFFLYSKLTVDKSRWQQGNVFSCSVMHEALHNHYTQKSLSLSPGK
notes: Humanized anti-BCMA Fab × anti-CD3 scFv-Fc, knob-in-hole Fc; also called BCMB1055.001; BCMB749h × Cris7b scFv
B2: BCMB1050 (bispecific antibody, human IgG1, kappa, L234A L235A)
light: B1 light
heavy: B1 heavy
chain: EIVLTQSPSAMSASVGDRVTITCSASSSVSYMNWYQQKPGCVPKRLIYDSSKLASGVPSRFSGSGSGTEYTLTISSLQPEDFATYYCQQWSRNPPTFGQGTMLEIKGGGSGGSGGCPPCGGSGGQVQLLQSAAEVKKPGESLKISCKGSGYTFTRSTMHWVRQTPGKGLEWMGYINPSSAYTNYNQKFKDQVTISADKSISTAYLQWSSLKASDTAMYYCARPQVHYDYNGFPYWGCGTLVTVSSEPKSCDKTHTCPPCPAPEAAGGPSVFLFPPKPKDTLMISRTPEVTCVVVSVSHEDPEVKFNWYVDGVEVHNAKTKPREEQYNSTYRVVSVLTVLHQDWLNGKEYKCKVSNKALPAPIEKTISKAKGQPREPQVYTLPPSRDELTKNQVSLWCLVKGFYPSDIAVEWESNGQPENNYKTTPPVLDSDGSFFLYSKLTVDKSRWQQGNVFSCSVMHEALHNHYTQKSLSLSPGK
notes: Humanized anti-BCMA Fab × stapled anti-CD3 scFv-Fc, knob-in-hole Fc; also called BCMB1050.001; BCMB749h × Cris7b spFv
B3: BCMB1049 (bispecific antibody, human IgG1, kappa, L234A L235A)
light: B1 light
heavy: B1 heavy
chain: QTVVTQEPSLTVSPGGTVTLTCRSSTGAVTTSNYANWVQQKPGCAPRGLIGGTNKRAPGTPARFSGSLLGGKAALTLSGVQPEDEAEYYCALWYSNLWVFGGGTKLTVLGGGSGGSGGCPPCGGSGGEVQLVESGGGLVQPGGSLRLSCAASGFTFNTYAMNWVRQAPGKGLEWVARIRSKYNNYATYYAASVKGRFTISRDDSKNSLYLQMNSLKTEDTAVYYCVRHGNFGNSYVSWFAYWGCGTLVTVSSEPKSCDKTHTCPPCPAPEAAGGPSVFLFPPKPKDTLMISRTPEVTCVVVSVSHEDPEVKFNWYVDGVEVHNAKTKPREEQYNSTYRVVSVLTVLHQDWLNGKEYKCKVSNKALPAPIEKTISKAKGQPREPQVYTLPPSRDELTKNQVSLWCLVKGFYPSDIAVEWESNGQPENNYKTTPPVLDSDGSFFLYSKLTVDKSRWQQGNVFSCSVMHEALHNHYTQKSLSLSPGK
notes: Humanized anti-BCMA Fab × stapled anti-CD3 (CD3B219) scFv-Fc, knob-in-hole Fc; also called BCMB1049.001; BCMB749h × CD3B219 spFv
B4: BCMB1052 (bispecific antibody, human IgG1, kappa, L234A L235A)
light: DIVMTQSQKFMSTTVGDRVSITCKASQNVGTAVAWYQQKPGQSPKLLIYSASNRYTGVPDRFTGTGSGTDFTLTIINVQSEDLADYFCQQYGSSPWTFGGGTKLEIKRTVAAPSVFIFPPSDEQLKSGTASVVCLLNNFYPREAKVQWKVDNALQSGNSQESVTEQDSKDSTYSLSSTLTLSKADYEKHKVYACEVTHQGLSSPVTKSFNRGEC
heavy: QVQLQQSGAELVKPGASVKLSCKASGYTFTNNVMHWVRQKPGQGLEWIGYILPYNDGTKYNEKFKGKATLTSDKSSSTAYMELSSLTSEDSAVYYCARYDYDGYFDYWGQGTTLTVSSASTKGPSVFPLAPSSKSTSGGTAALGCLVKDYFPEPVTVSWNSGALTSGVHTFPAVLQSSGLYSLSSVVTVPSSSLGTQTYICNVNHKPSNTKVDKKVEPKSCDKTHTCPPCPAPEAAGGPSVFLFPPKPKDTLMISRTPEVTCVVVSVSHEDPEVKFNWYVDGVEVHNAKTKPREEQYNSTYRVVSVLTVLHQDWLNGKEYKCKVSNKALPAPIEKTISKAKGQPREPQVYTLPPSREEMTKNQVSLSCAVKGFYPSDIAVEWESNGQPENNYKTTPPVLDSDGSFFLVSKLTVDKSRWQQGNVFSCSVMHEALHNRFTQKSLSLSPGK
chain: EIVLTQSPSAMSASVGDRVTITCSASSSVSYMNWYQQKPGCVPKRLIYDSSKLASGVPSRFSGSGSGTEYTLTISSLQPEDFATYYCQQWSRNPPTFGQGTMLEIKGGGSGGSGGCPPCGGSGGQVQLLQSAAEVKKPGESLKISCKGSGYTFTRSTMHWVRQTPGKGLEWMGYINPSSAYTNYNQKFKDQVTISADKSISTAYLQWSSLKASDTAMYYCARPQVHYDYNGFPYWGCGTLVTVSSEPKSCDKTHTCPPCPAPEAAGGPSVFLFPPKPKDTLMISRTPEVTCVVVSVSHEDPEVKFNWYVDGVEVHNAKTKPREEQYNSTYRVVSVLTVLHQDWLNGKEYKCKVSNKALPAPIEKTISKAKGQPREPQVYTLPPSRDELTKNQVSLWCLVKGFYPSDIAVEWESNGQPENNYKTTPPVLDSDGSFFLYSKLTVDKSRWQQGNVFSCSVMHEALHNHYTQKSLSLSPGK
notes: Murine anti-BCMA Fab × stapled anti-CD3 scFv-Fc, knob-in-hole Fc; also called BCMB1052.001; BCMB749 × Cris7b spFv
B5: BCMB1056 (bispecific antibody, human IgG1, kappa, L234A L235A)
light: B4 light
heavy: B4 heavy
chain: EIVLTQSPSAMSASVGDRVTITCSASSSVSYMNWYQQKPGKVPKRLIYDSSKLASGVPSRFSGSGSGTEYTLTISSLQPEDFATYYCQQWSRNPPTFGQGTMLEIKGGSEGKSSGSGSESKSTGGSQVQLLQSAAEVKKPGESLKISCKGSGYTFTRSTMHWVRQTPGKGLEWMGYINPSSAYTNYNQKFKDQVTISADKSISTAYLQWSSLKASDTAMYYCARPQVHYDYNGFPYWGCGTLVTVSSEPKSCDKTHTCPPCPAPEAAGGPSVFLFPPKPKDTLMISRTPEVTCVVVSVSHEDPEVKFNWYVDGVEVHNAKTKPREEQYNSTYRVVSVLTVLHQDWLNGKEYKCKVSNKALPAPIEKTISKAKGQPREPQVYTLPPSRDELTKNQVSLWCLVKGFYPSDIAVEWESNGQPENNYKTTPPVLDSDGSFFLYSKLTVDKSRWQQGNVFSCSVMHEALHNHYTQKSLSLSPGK
notes: Murine anti-BCMA Fab × anti-CD3 scFv-Fc, knob-in-hole Fc; also called BCMB1056.001; BCMB749 × Cris7b scFv
B6: BCMB1051 (bispecific antibody, human IgG1, kappa, L234A L235A)
light: B4 light
heavy: B4 heavy
chain: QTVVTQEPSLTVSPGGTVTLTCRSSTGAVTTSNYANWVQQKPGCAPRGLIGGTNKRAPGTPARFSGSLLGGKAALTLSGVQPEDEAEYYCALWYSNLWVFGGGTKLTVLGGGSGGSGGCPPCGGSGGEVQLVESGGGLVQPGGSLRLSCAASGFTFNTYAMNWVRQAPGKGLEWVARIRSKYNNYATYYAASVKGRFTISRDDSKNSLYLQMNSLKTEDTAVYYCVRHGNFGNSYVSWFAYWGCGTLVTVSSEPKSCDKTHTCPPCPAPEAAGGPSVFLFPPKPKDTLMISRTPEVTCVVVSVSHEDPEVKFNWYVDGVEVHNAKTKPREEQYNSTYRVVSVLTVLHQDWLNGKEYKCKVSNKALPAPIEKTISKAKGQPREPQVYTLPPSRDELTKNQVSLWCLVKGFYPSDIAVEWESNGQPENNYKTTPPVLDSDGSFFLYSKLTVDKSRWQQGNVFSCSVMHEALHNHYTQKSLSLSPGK
notes: Murine anti-BCMA Fab × stapled anti-CD3 (CD3B219) scFv-Fc, knob-in-hole Fc; also called BCMB1051.001; BCMB749 × CD3B219 spfv

The binders below were run against CD3 on human donor Pan T cells (human) (assay: cell-based or functional assay).
CD3 on human donor Pan T cells (human), sequence (chain, as listed by the source): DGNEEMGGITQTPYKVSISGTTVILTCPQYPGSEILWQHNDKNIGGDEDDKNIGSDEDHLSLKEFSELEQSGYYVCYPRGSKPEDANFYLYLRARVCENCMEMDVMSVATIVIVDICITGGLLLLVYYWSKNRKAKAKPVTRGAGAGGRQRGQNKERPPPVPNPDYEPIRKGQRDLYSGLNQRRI

Binder	Bottom of fit, CD4/CD25+ T cell activation	Bottom of fit, CD8/CD25+ T cell activation	EC50 (nM), CD4/CD25+ T cell activation	EC50 (nM), CD8/CD25+ T cell activation	Top of fit (Cmax), CD4/CD25+ T cell activation	Top of fit (Cmax), CD8/CD25+ T cell activation
B1	7.46	0.97	0.0447 nM	0.0859 nM	87.4	81.2
B2	8.05	1.32	0.0222 nM	0.0343 nM	86.4	80.1
B3	8.58	1.65	0.0409 nM	0.0744 nM	86.8	77
B4	8.12	0.941	0.0627 nM	0.117 nM	80.9	73.5
B5	8.29	1.42	0.105 nM	0.15 nM	82.7	75.3
B6	8.67	1.67	0.087 nM	0.144 nM	84.9	74

These binders were tested against T1, BCMA on H929-Fluc-GFP cells (UniProt Q02223 1-184) (assay: cell-based or functional assay).
T1 sequence (looked up): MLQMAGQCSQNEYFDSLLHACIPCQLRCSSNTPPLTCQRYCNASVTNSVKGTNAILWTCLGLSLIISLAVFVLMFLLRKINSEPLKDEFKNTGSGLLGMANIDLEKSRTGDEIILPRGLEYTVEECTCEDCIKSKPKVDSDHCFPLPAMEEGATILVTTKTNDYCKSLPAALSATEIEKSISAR

Binder	Bottom of fit, % Cytolysis	EC50 (nM), % Cytolysis	Top of fit (Cmax), % Cytolysis
B1	16.1%	0.0301 nM	93.2%
B2	17%	0.0141 nM	94.6%
B3	16.5%	~0.0348 nM	92.7%
B4	15.4%	0.0489 nM	93.4%
B5	17.2%	0.0758 nM	92.7%
B6	16.7%	0.0594 nM	92.4%

Each binder was assayed against T2, BCMA (BCMW37.DB.001) (UniProt Q02223 1-54, limits assumed) (assay: SPR, BCMA antigen BCMW37.DB.001).
T2 construct: The SPR antigen itself is named only by its batch label
T2 sequence (looked up): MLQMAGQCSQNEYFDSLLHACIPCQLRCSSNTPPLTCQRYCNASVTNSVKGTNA

Binder	Kd	koff	kon
B1	1.77 nM	0.0223 s⁻¹	1.26e+07 M⁻¹ s⁻¹
B2	1.75 nM	0.021 s⁻¹	1.2e+07 M⁻¹ s⁻¹
B3	1.59 nM	0.0219 s⁻¹	1.38e+07 M⁻¹ s⁻¹
B4	2.74 nM	0.039 s⁻¹	1.42e+07 M⁻¹ s⁻¹
B5	2.61 nM	0.0389 s⁻¹	1.49e+07 M⁻¹ s⁻¹
B6	2.47 nM	0.0413 s⁻¹	1.67e+07 M⁻¹ s⁻¹

What follows are binders tested against CD3W220.001 (assay: SPR, CD3 antigen CD3W220.001).

Binder	Kd	koff	kon
B1	746 nM	0.199 s⁻¹	267000 M⁻¹ s⁻¹
B2	657 nM	0.121 s⁻¹	184000 M⁻¹ s⁻¹
B3	23.6 nM	0.00205 s⁻¹	86900 M⁻¹ s⁻¹
B4	502 nM	0.105 s⁻¹	210000 M⁻¹ s⁻¹
B5	951 nM	0.237 s⁻¹	249000 M⁻¹ s⁻¹
B6	21.5 nM	0.00171 s⁻¹	79500 M⁻¹ s⁻¹
